Results published in patent US11653679B2, “High-purity steviol glycosides” (PureCircle Sdn Bhd, priority 2014, dated 2023).
Each block holds one molecule with its values, some of them ahead of it.

Tests used:
Assay type in all cases: biochemical
[1] = Catalytic test Rebaudioside A to Rebaudioside D with in-vitro expressed UDP-glucosyltransferases (Examples 20, 21), HPLC
Description: The prepared expression medium mix was added to the plasmid solution and the solution was allowed to incubate at 30° C. for 3 hours while mixing the mixture every 45 minutes. 5 μL of the mixture was frozen whereas the remainder was used for the catalytic test for the conversion of Rebaudioside A to Rebaudioside D.
(§1) 430 μL of a reaction mixture containing 0.5 mM Rebaudioside A, 3 mM MgCl2, 50 mM phosphate buffer (pH7.2) and 2.5 mM UDP-glucose was added to a 1.5 mL sterile microtube. 52 μl of the enzyme expression medium was added and the resulting mixture was allowed to react at 30° C. for 24 hours. 125 μL samples were taken after 2 hours, 16 hours and 24 hours and added to a 115 μL of 60% methanol and 10 μL of 2 N H2SO4. The quenched sample was centrifuged at 18,000 g for 2 minutes at RT. 200 μL was transferred to an HPLC vial and analyzed.
The HPLC assay was performed as follows:
as §1, with “μL” for “μl”, “to” for “to an”
(§2) The HPLC assay was performed as described in EXAMPLE 20.

[2] = Activity of in-vivo produced enzymes for transformation of Rebaudioside A (Example 22)
Description: Activity tests were performed at 5 mL scale with 1,000 μL of thawed lysate for the transformation of Rebaudioside A using 0.5 mM of substrate, 2.5 mM of UDP-Glucose and 3 mM MgCl2 in 50 mM Sodium Phosphate buffer at pH 7.2. Samples were taken and analyzed by HPLC.
as §2

[3] = Transformation of Rebaudioside D to Rebaudioside M with UGT76G1 (Examples 6, 13), HPLC; conditions: per mL of lysate; 1 U transforms 1 μmol in 1 hour at 30° C. and pH 7.2
Description: The total volume of the reaction was 2 mL with the following composition: 50 mM sodium phosphate buffer pH 7.2, 3 mM MgCl2, 3.8 mM UDP-glucose, 0.5 mM Rebaudioside D and 180 μL of in-vitro produced UGT76G1. The reactions were run at 30° C. on an orbitary shaker at 135 rpm. For each sample, 400 μL of reaction mixture was quenched with 40 μL of 2N H2SO4 and 360 μL of 60% MeOH. After centrifugation, the supernatant was analyzed by HPLC (CAD).
(§3) Activity tests were performed on a 5 mL scale with 500 μL of thawed lysate for the transformation of Stevioside to Rebaudioside A and Rebaudioside D to Rebaudioside M using 0.5 mM of substrate, 2.5 mM of UDP-Glucose and 3 mM MgCl2 in 50 mM Sodium Phosphate buffer at pH 7.2. Samples were taken and analyzed by HPLC.

[4] = Transformation of Stevioside to Rebaudioside A with UGT76G1 lysate (Examples 4, 13), HPLC; conditions: per mL of lysate; 1 U transforms 1 μmol in 1 hour at 30° C. and pH 7.2
Description: The total volume of the reaction was 5.0 mL with the following composition: 50 mM sodium phosphate buffer pH 7.2, 3 mM MgCl2, 2.5 mM UDP-glucose, 0.5 mM Stevioside and 500 μl, of UGT76G1 thawed lysate. The reactions were run at 30° C. on an orbitary shaker at 135 rpm. For each sample, 460 μL of the reaction mixture was quenched with 40 μL of 2N H2SO4 and 420 μL of methanol/water (6/4). The samples were immediately centrifuged and kept at 10° C. before analysis by HPLC (CAD).
as §3

[5] = 0.5 mM Rebaudioside A, 30° C., HPLC

Reb D selectivity ([2]; after 45 hrs.): Reb D Not detected
B1: gi297795735_XP_002865752.1: UDP-glucoronosyl/UDP-glucosyl transferase family protein [Arabidopsis lyrata subsp. lyrata], SEQ ID NO:7 (protein, listed as Arabidopsis lyrata)
chain: MDDKKEEVMHIAMFPWLAMGHLLPFLRLSKLLAQKGHKISFISTPRNILRLPKLPSNLSSSITFVSFPLPSISGLPPSSESSMDVPYNKQQSLKAAFDLLQPPLTEFLRLSSPDWIIYDYASHWLPSIAKELGISKAFFSLFNAATLCFMGPSSSLIEESRSTPEDFTVVPPWVPFKSTIVFRYHEVSRYVEKTDEDVTGVSDSVRFGYTIDGSDAVFVRSCPEFEPEWFSLLQDLYRKPVFPIGFLPPVIEDDDDDTTWVRIKEWLDKQRVNSVVYVSLGTEASLRREELTELALGLEKSETPFFWVLRNEPQIPDGFEERVKGRGMVHVGWVPQVKILSHESVGGFLTHCGWNSVVEGIGFGKVPIFLPVLNEQGLNTRLLQGKGLGVEVLRDERDGSFGSDSVADSVRLVMIDDAGEEIREKVKLMKGLFGNMDENIRYVDELVGFMRNDESSQLKEEEEEDDCSDDQSSEVSSETDEKELNLDLKEEKRRISVYKSLSSEFDDYVANEKMG
Steviol glycoside conversion in reaction mixture, Reb A [1, 5]: 95.8 % area
Steviol glycoside conversion in reaction mixture, Reb D [1, 5]: 0.28 % area
Steviol glycoside conversion in reaction mixture, Reb UNK (later identified as reb D2) [1, 5]: 3.9 % area
Conversion RebA to RebD ([1]; in-vitro expressed enzyme): Active
Conversion after 45 hrs. ([2]; 0.5 mM, in-vivo produced enzyme lysate): 0.0%

B2: Example 12: UGT76G1 lysate prepared by pCOLDIII plasmid and Origami2 (DE3) expression strain (protein, UniProt Q6VAB4 1-458, looked up)
UDP-glycosyltransferase 76G1: MENKTETTVRRRRRIILFPVPFQGHINPILQLANVLYSKGFSITIFHTNFNKPKTSNYPHFTFRFILDNDPQDERISNLPTHGPLAGMRIPIINEHGADELRRELELLMLASEEDEEVSCLITDALWYFAQSVADSLNLRRLVLMTSSLFNFHAHVSLPQFDELGYLDPDDKTRLEEQASGFPMLKVKDIKSAYSNWQILKEILGKMIKQTKASSGVIWNSFKELEESELETVIREIPAPSFLIPLPKHLTASSSSLLDHDRTVFQWLDQQPPSSVLYVSFGSTSEVDEKDFLEIARGLVDSKQSFLWVVRPGFVKGSTWVEPLPDGFLGERGRIVKWVPQQEVLAHGAIGAFWTHSGWNSTLESVCEGVPMIFSDFGLDQPLNARYMSDVLKVGVYLENGWERGEIANAIRRVMVDEEGEYIRQNARVLKQKADVSLMKGGSSYESLESLVSYISSL
modifications: E. coli lysate, pCOLDIII
notes: UGT76G1 lysate prepared by pCOLDIII plasmid and Origami2 (DE3) expression strain
Transformation activity Rebaudioside D to Rebaudioside M [3]: 0.20 U mL^−1
Transformation activity Stevioside to Rebaudioside A [4]: 37 U mL^−1

B3: Example 9: UGT76G1 lysate prepared by pMAL plasmid and BL21 expression strain (protein, UniProt Q6VAB4 1-458, looked up)
UDP-glycosyltransferase 76G1: MENKTETTVRRRRRIILFPVPFQGHINPILQLANVLYSKGFSITIFHTNFNKPKTSNYPHFTFRFILDNDPQDERISNLPTHGPLAGMRIPIINEHGADELRRELELLMLASEEDEEVSCLITDALWYFAQSVADSLNLRRLVLMTSSLFNFHAHVSLPQFDELGYLDPDDKTRLEEQASGFPMLKVKDIKSAYSNWQILKEILGKMIKQTKASSGVIWNSFKELEESELETVIREIPAPSFLIPLPKHLTASSSSLLDHDRTVFQWLDQQPPSSVLYVSFGSTSEVDEKDFLEIARGLVDSKQSFLWVVRPGFVKGSTWVEPLPDGFLGERGRIVKWVPQQEVLAHGAIGAFWTHSGWNSTLESVCEGVPMIFSDFGLDQPLNARYMSDVLKVGVYLENGWERGEIANAIRRVMVDEEGEYIRQNARVLKQKADVSLMKGGSSYESLESLVSYISSL
modifications: E. coli lysate, pMAL vector
notes: UGT76G1 lysate prepared by pMAL plasmid and BL21 expression strain
Transformation activity Rebaudioside D to Rebaudioside M [3]: 0.15 U mL^−1
Transformation activity Stevioside to Rebaudioside A [4]: 20 U mL^−1

B4: Example 8: UGT76G1 lysate prepared by pET30a+ plasmid and Tuner (DE3) expression strain (protein, UniProt Q6VAB4 1-458, looked up)
UDP-glycosyltransferase 76G1: MENKTETTVRRRRRIILFPVPFQGHINPILQLANVLYSKGFSITIFHTNFNKPKTSNYPHFTFRFILDNDPQDERISNLPTHGPLAGMRIPIINEHGADELRRELELLMLASEEDEEVSCLITDALWYFAQSVADSLNLRRLVLMTSSLFNFHAHVSLPQFDELGYLDPDDKTRLEEQASGFPMLKVKDIKSAYSNWQILKEILGKMIKQTKASSGVIWNSFKELEESELETVIREIPAPSFLIPLPKHLTASSSSLLDHDRTVFQWLDQQPPSSVLYVSFGSTSEVDEKDFLEIARGLVDSKQSFLWVVRPGFVKGSTWVEPLPDGFLGERGRIVKWVPQQEVLAHGAIGAFWTHSGWNSTLESVCEGVPMIFSDFGLDQPLNARYMSDVLKVGVYLENGWERGEIANAIRRVMVDEEGEYIRQNARVLKQKADVSLMKGGSSYESLESLVSYISSL
modifications: E. coli Tuner (DE3) lysate, pET30a+
notes: UGT76G1 lysate prepared by pET30a+ plasmid and Tuner (DE3) expression strain
Transformation activity Rebaudioside D to Rebaudioside M [3]: 0.40 U mL^−1
Transformation activity Stevioside to Rebaudioside A [4]: 33 U mL^−1

B5: Example 7: UGT76G1 lysate prepared by pET30a+ plasmid and BL21 (DE3) expression strain (protein, UniProt Q6VAB4 1-458, looked up)
UDP-glycosyltransferase 76G1: MENKTETTVRRRRRIILFPVPFQGHINPILQLANVLYSKGFSITIFHTNFNKPKTSNYPHFTFRFILDNDPQDERISNLPTHGPLAGMRIPIINEHGADELRRELELLMLASEEDEEVSCLITDALWYFAQSVADSLNLRRLVLMTSSLFNFHAHVSLPQFDELGYLDPDDKTRLEEQASGFPMLKVKDIKSAYSNWQILKEILGKMIKQTKASSGVIWNSFKELEESELETVIREIPAPSFLIPLPKHLTASSSSLLDHDRTVFQWLDQQPPSSVLYVSFGSTSEVDEKDFLEIARGLVDSKQSFLWVVRPGFVKGSTWVEPLPDGFLGERGRIVKWVPQQEVLAHGAIGAFWTHSGWNSTLESVCEGVPMIFSDFGLDQPLNARYMSDVLKVGVYLENGWERGEIANAIRRVMVDEEGEYIRQNARVLKQKADVSLMKGGSSYESLESLVSYISSL
modifications: E. coli lysate, pET30a+
notes: UGT76G1 lysate prepared by pET30a+ plasmid and BL21 (DE3) expression strain
Transformation activity Rebaudioside D to Rebaudioside M [3]: 0.31 U mL^−1
Transformation activity Stevioside to Rebaudioside A [4]: 29 U mL^−1

B6: Example 11: UGT76G1 lysate prepared by pCOLDIII plasmid and ArcticExpress expression strain (protein, UniProt Q6VAB4 1-458, looked up)
UDP-glycosyltransferase 76G1: MENKTETTVRRRRRIILFPVPFQGHINPILQLANVLYSKGFSITIFHTNFNKPKTSNYPHFTFRFILDNDPQDERISNLPTHGPLAGMRIPIINEHGADELRRELELLMLASEEDEEVSCLITDALWYFAQSVADSLNLRRLVLMTSSLFNFHAHVSLPQFDELGYLDPDDKTRLEEQASGFPMLKVKDIKSAYSNWQILKEILGKMIKQTKASSGVIWNSFKELEESELETVIREIPAPSFLIPLPKHLTASSSSLLDHDRTVFQWLDQQPPSSVLYVSFGSTSEVDEKDFLEIARGLVDSKQSFLWVVRPGFVKGSTWVEPLPDGFLGERGRIVKWVPQQEVLAHGAIGAFWTHSGWNSTLESVCEGVPMIFSDFGLDQPLNARYMSDVLKVGVYLENGWERGEIANAIRRVMVDEEGEYIRQNARVLKQKADVSLMKGGSSYESLESLVSYISSL
modifications: E. coli ArcticExpress lysate, pCOLDIII
notes: UGT76G1 lysate prepared by pCOLDIII plasmid and ArcticExpress expression strain
Transformation activity Rebaudioside D to Rebaudioside M [3]: 0.11 U mL^−1
Transformation activity Stevioside to Rebaudioside A [4]: 15 U mL^−1

B7: Example 10: UGT76G1 lysate prepared by pMAL plasmid and ArcticExpress expression strain (protein, UniProt Q6VAB4 1-458, looked up)
UDP-glycosyltransferase 76G1: MENKTETTVRRRRRIILFPVPFQGHINPILQLANVLYSKGFSITIFHTNFNKPKTSNYPHFTFRFILDNDPQDERISNLPTHGPLAGMRIPIINEHGADELRRELELLMLASEEDEEVSCLITDALWYFAQSVADSLNLRRLVLMTSSLFNFHAHVSLPQFDELGYLDPDDKTRLEEQASGFPMLKVKDIKSAYSNWQILKEILGKMIKQTKASSGVIWNSFKELEESELETVIREIPAPSFLIPLPKHLTASSSSLLDHDRTVFQWLDQQPPSSVLYVSFGSTSEVDEKDFLEIARGLVDSKQSFLWVVRPGFVKGSTWVEPLPDGFLGERGRIVKWVPQQEVLAHGAIGAFWTHSGWNSTLESVCEGVPMIFSDFGLDQPLNARYMSDVLKVGVYLENGWERGEIANAIRRVMVDEEGEYIRQNARVLKQKADVSLMKGGSSYESLESLVSYISSL
modifications: E. coli lysate, pMAL
notes: UGT76G1 lysate prepared by pMAL plasmid and ArcticExpress expression strain
Transformation activity Rebaudioside D to Rebaudioside M [3]: 0.25 U mL^−1
Transformation activity Stevioside to Rebaudioside A [4]: 15 U mL^−1
